From article PMC7028823, “EF1025, a Hypothetical Protein From Enterococcus faecalis, Interacts With DivIVA and Affects Cell Length and Cell Shape” (Frontiers in Microbiology, 2020)

Experiments:
[1] = target: DivIVAEf (bacterial two-hybrid fusion) (Enterococcus faecalis JH2-2) (UniProt Q93C53); assay: two-hybrid; bacterial two-hybrid (Di Lallo) in E. coli R721, vectors pcI434-L and pcIp22-L, 0.1 mM IPTG; residual β-galactosidase activity, less than 50% indicates a positive interaction
[2] = target: the molecule itself; assay: SEC-MALS; 1 mg purified 6×His-EF1025 on Superdex 200 in 50 mM Tris base, 400 mM NaCl, pH 7.4; also with 1 mM dithiothreitol

## EF1025-c (AA80-209 of EF1025), bacterial two-hybrid fusion (domain or fragment)
[1]
  residual β-galactosidase activity: 14%

B1: 6×His-EF1025 (natural protein, Enterococcus faecalis JH2-2, UniProt Q836T2 1-209, looked up)
chain: MKLSKRQEQIIAVVKEHQPVSGERISDILAVSRATLRSDLSFLTLSGILKASPKVGYTYESDNMEAFFFFDVFQTKVQEIMSPPLMVAQDTSIRDAITNLFMYDVGSLYVMDEAKELLGVLSRKDLLRASLNTNIDGTPVAVCMTRVPHVKTCTPEFTILEAADTLQKYEVDSLPVVEKENPKKVIGKITKTKILTYITQQAKEAAQNR
notes: hypothetical protein EF1025 of Enterococcus faecalis (209 AA), gene amplified with primers EF1025F-F/R and cloned into pET30a(+); Vector pET30a(+); also called pETEF1025; source: E. coli C41 (DE3), in lysate supernatant (pull-down); copies: 10
[2]
  stoichiometry N: 10
